Target: the molecule itself
Test: FRET or BRET

B1: FokI restriction endonuclease (enzyme, UniProt P14870 1-579, looked up)
chain: MVSKIRTFGWVQNPGKFENLKRVVQVFDRNSKVHNEVKNIKIPTLVKESKIQKELVAIMNQHDLIYTYKELVGTGTSIRSEAPCDAIIQATIADQGNKKGYIDNWSSDGFLRWAHALGFIEYINKSDSFVITDVGLAYSKSADGSAIEKEILIEAISSYPPAIRILTLLEDGQHLTKFDLGKNLGFSGESGFTSLPEGILLDTLANAMPKDKGEIRNNWEGSSDKYARMIGGWLDKLGLVKQGKKEFIIPTLGKPDNKEFISHAFKITGEGLKVLRRAKGSTKFTRVPKRVYWEMLATNLTDKEYVRTRRALILEILIKAGSLKIEQIQDNLKKLGFDEVIETIENDIKGLINTGIFIEIKGRFYQLKDHILQFVIPNRGVTKQLVKSELEEKKSELRHKLKYVPHEYIELIEIARNSTQDRILEMKVMEFFMKVYGYRGKHLGGSRKPDGAIYTVGSPIDYGVIVDTKAYSGGYNLPIGQADEMQRYVEENQTRNKHINPNEWWKVYPSSVTEFKFLFVSGHFKGNYKAQLTRLNHITNCNGAVLSVEELLIGGEMIKAGTLTLEEVRRKFNNGEINF
Does B1 bind?
Result: binds

Source: article PMC3367207 (Nucleic Acids Research, 2012)
